T1: mouse CD27 (mouse, UniProt P41272 24-182, limits assumed)
T1 construct: The construct is not described; also called murine CD27
T1 sequence (looked up): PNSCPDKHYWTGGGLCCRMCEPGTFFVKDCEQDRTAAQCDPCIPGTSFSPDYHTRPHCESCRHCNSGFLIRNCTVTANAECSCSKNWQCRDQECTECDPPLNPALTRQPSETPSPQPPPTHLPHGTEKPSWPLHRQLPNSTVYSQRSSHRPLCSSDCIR


Experiments:
human CD27 [1] = target: T2, human CD27 (human, UniProt P26842 21-192, limits assumed); assay: Kd table for the mAb titration on human CD27 (OD readout, Figure 4 A); method not given
T2 construct: The construct (soluble form, tags) is not described; also called TNFRSF7
T2 sequence (P26842 21-192 limits assumed): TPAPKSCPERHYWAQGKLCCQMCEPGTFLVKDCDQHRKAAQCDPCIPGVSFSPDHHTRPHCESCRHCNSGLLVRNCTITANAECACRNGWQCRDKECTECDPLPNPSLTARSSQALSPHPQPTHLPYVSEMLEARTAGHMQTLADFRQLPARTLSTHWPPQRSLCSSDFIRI

mouse CD27 [2] = target: T1, mouse CD27; assay: Kd table for the mAb titration on mouse CD27 (OD readout, Figure 4 B); method not given
human CD27 [3] = target: T2, human CD27; assay: mAb titration on human CD27, OD readout
human CD27 [4] = target: T2, human CD27; assay: screen of individual clones, heat map of log (Binding MFI), human CD27 at 25 nM
mouse CD27 [5] = target: T1, mouse CD27; assay: screen of individual clones, heat map of log (Binding MFI), mouse CD27 at 25 nM

Binder | Kd (human CD27 [1]) [pM] | binding result (human CD27 [4]) | also measured
TP10 (antibody, V domains shown) VH: QVQLVESGGGVVQPGRSLRLSCAASGFTFSSYAMHWVRQAPGKGLEWVAVISYDGSNKYYADSVKGRFTISRDNSKNTLYLQMNSLRAEDTAVYYCARSGRATSYSYYGMDVWGQGTLVTVSS VL: not shown | 400 | – | Kd (mouse CD27 [2]): 900 pM
TP6 (antibody, V domains shown, also called TP06) VH: QVQLVESGGGVVQPGRSLRLSCAASGFTFSSYAMHWVRQAPGKGLEWVAVISYDGSNKYYADSVKGRFTISRDNSKNTLYLQMNSLRAEDTAVYYCARGYQGGYSNFDLWGQGTLVTVSS VL: DIQMTQSPSTLSASVGDRVTITCRASQSISSWLAWYQQKPGKAPKLLIYDASSLESGVPSRFSGSGSGTDFTLTISSLQPEDFATYYCQQSYSTPYTFGQGTKLEIK | 600 | – | EC50 (read off the curve) (human CD27 [3]): ~300 pM; Kd (mouse CD27 [2]): 8000 pM
TP21 (antibody, V domains shown, Clone of the screen) VH: not shown VL: QSVVTQPPSVSGAPGQRVTISCTGSSSNIGAGYDVHWYQQLPGTAPKLLIYGNSNRPSGVPDRFSGSKSGTSASLAITGLQAEDEADYYCQSYDSSLSGYVFGTGTKVTVL | – | binds | –
TP17 (antibody, V domains shown, Clone of the screen) VH: not shown VL: QSVVTQPPSVSGAPGQRVTISCTGSSSNIGAGYDVHWYQQLPGTAPKLLIYGNSNRPSGVPDRFSGSKSGTSASLAITGLQAEDEADYYCQSYDSSLSGYVFGTGTKVTVL | – | binds | –
TP31 (antibody, V domains shown) VH: not shown VL: QSVVTQPPSVSGAPGQRVTISCTGSSSNIGAGYDVHWYQQLPGTAPKLLIYGNSNRPSGVPDRFSGSKSGTSASLAITGLQAEDEADYYCQSYDSSLSGYVFGTGTKVTVL | 1400 | – | –
TP25 (antibody, V domains shown) VH: not shown VL: QSVVTQPPSVSGAPGQRVTISCTGSSSNIGAGYDVHWYQQLPGTAPKLLIYGNSNRPSGVPDRFSGSKSGTSASLAITGLQAEDEADYYCQSYDSSLSGYVFGTGTKVTVL | 100 | – | EC50 (read off the curve) (human CD27 [3]): ~100 pM
TP22 (antibody, V domains shown, Clone of the screen) VH: not shown VL: QSVVTQPPSVSGAPGQRVTISCTGSSSNIGAGYDVHWYQQLPGTAPKLLIYGNSNRPSGVPDRFSGSKSGTSASLAITGLQAEDEADYYCQSYDSSLSGYVFGTGTKVTVL | – | binds | binding result (mouse CD27 [5]): binds
TP28 (antibody, V domains shown, Clone of the screen) VH: not shown VL: QSVVTQPPSVSGAPGQRVTISCTGSSSNIGAGYDVHWYQQLPGTAPKLLIYGKSNRPSGVPDRFSGSKSGTSASLAITGLQAEDEADYYCQSYDSSLSGYVFGTGTKVTVL | – | binds | –
TP29 (antibody, V domains shown) VH: EVQLVESGGGVVQPGRSLRLSCAASGFTFSNAWMSWVRQAPGKGLEWVSAISGSGGSTYYADSVKGRFTISRDNSKNTLYLQMNSLRAEDTAVYYCARRALSLSYFDYWGQGTLVTVSS VL: QSVVTQPPSVSGAPGQRVTISCTGSSSNIGAGYDVHWYQQLPGTAPKLLIYGNSNRPSGVPDRFSGSKSGTSASLAITGLQAEDEADYYCQSYDSSLSGYVFGTGTKVTVL | 300 | – | Kd (mouse CD27 [2]): 700 pM
TP11 (antibody, V domains shown) VH: QVQLVESGGGVVQPGRSLRLSCAASGFTFSSYAMHWVRQAPGKGLEWVAVISYDGSNKYYADSVKGRFTISRDNSKNTLYLQMNSLRAEDTAVYYCARGVSGSYARGFDVWGQGTLVTVSS VL: DIQMTQSPSTLSASVGDRVTITCRASQSISSWLAWYQQKPGKAPKLLIYDASSLESGVPSRFSGSGSGTEFTLTISSLQPEDFATYYCQQSYSTPWTFGQGTKVEIK | 200 | – | Kd (mouse CD27 [2]): 500 pM
TP1 (antibody, V domains shown, Clone of the screen; also called TP01) VH: QVQLVESGGGVVQPGRSLRLSCAASGFTFSSYAMHWVRQAPGKGLEWVAVISYDGSNKYYADSVKGRFTISRDNSKNTLYLQMNSLRAEDTAVYYCARAGSSGYAYYGMDVWGQGTLVTVSS VL: not shown | – | binds | –
TP5 (antibody, V domains shown, Clone of the screen; also called TP05) VH: QVQLVESGGGVVQPGRSLRLSCAASGFTFSSYAMHWVRQAPGKGLEWVAVISYDGSNKYYADSVKGRFTISRDNSKNTLYLQMNSLRAEDTAVYYCARVFYGYAPFDVWGQGTLVTVSS VL: DIQMTQSPSTLSASVGDRVTITCRASQSISSWLAWYQQKPGKAPKLLIYDASSLESGVPSRFSGSGSGTEFTLTISSLQPDDFATYYCQQSYSTPYTFGQGTKLEIK | – | binds | –
TP9 (antibody, V domains shown, Clone of the screen; also called TP09) VH: QVQLVESGGGVVQPGRSLRLSCAASGFTFSSYAMHWVRQAPGKGLEWVAVISYDGSNKYYADSVKGRFTISRDNSKNTLYLQMNSLRAEDTAVYYCARAVPYVYYGMDVWGQGTLVTVSS VL: not shown | – | binds | –
TP14 (antibody, V domains shown, Clone of the screen) VH: QVQLVQSGAEVKKPGASVKVSCKASGYTFTSYYMHWVRQAPGQGLEWMGIINPSGGSTSYAQKFQGRVTMTRDTSTSTVYMELSSLRSEDTAVYYCARYDHAGGTPFDLWGQGTLVTVSS VL: QSVLTQPPSVSAAPGQKVTISCSGSSSNIGNNYVSWYQQLPGTAPKLLIYGNSNRPSGVPDRFSGSKSGTSASLAITGLQAEDEADYYCQSYDSSLSGYVFGTGTKVTVL | – | binds | –
TP15 (antibody, V domains shown, Clone of the screen) VH: QVQLVQSGAEVKKPGASVKVSCKASGYTFTSYGISWVRQAPGQGLEWMGWISAYNGNTNYAQKLQGRVTMTTDESTSTAYMELSSLRSEDTAVYYCARGGAGHYDYFDYWGQGTLVTVSS VL: QSVLTQPPSVSAAPGQKVTISCSGSSSNIGNNYVSWYQQLPGTAPKLLIYDNNKRPSGIPDRFSGSNSGNTATLTISGTQAMDEADYYCQAWDSSTAWVFGGGTKLTVL | – | binds | –
TP24 (antibody, V domains shown, Clone of the screen) VH: QVQLVESGGGVVQPGRSLRLSCAASGFTFSSYAMHWVRQAPGKGLEWVAVISYDGSNKYYADSVKGRFTISRDNSKNTLYLQMNSLRAEDTAVYYCARPVRTISAFDVWGQGTLVTVSS VL: QSVVTQPPSVSGAPGQRVTISCTGSSSNIGAGYDVHWYQQLPGTAPKLLIYGNSNRPSGVPDRFSGSKSGTSASLAITGLQAEDEADYYCGTWDSSLSAGYVFGTGTKVTVL | – | binds | –
TP23 (antibody, V domains shown) VH: QVQLVQSGAEVKKPGASVKVSCKASGYTFTSYGISWVRQAPGQGLEWMGWISAYNGNTNYAQKLQGRVTMTTDTSTSTAYMELRSLRSDDTAVYYCARGGAGHYDYFDYWGQGTLVTVSS VL: QSVVTQPPSVSGAPGQRVTISCTGSSSNIGAGYDVHWYQQLPGTAPKLLIYGNSNRPSGVPDRFSGSKSGTSASLAITGLQAEDEADYYCQSYDSSLSGYVFGTGTKVTVL | 5000 | – | Kd (mouse CD27 [2]): 40000 pM

Source: patent publication US20220144961A1 (XYENCE THERAPEUTICS, published 2022)
